Results published in patent US20200199204A1 (UNITED STATES OF AMERICA AS REPRESENTED BY THE SECRETARY …, published 2020).

Legend:
Assay in all cases: cell-based or functional assay
HIV-1 Env of CAP256.PI = HIV-1 Env of CAP256.PI (HIV-1)
HIV-1 Env of CAP256.SU = HIV-1 Env of CAP256.SU (HIV-1)
HIV-1 Env of 96ZM651.02 = HIV-1 Env of 96ZM651.02 (HIV-1)
HIV-1 Env of CAP210.E8 = HIV-1 Env of CAP210.E8 (HIV-1)
HIV-1 Env of CAP244.D3 = HIV-1 Env of CAP244.D3 (HIV-1)
HIV-1 Env of CAP45.G3 = HIV-1 Env of CAP45.G3 (HIV-1)
HIV-1 Env of DU156.12 = HIV-1 Env of DU156.12 (HIV-1)
HIV-1 Env of DU172.17 = HIV-1 Env of DU172.17 (HIV-1)
HIV-1 Env of DU422.01 = HIV-1 Env of DU422.01 (HIV-1)
HIV-1 Env of ZM109.4 = HIV-1 Env of ZM109.4 (HIV-1)
HIV-1 Env of ZM135.10a = HIV-1 Env of ZM135.10a (HIV-1)
HIV-1 Env of ZM197.7 = HIV-1 Env of ZM197.7 (HIV-1)
HIV-1 Env of ZM214.15 = HIV-1 Env of ZM214.15 (HIV-1)
HIV-1 Env of ZM249.1 = HIV-1 Env of ZM249.1 (HIV-1)
HIV-1 Env of ZM53.12 = HIV-1 Env of ZM53.12 (HIV-1)
HIV-1 Env of 0260.v5.c36 = HIV-1 Env of 0260.v5.c36 (HIV-1)
HIV-1 Env of BG505.w6m = HIV-1 Env of BG505.w6m (HIV-1)
HIV-1 Env of KER2008.12 = HIV-1 Env of KER2008.12 (HIV-1)
HIV-1 Env of KER2018.11 = HIV-1 Env of KER2018.11 (HIV-1)
HIV-1 Env of MB201 = HIV-1 Env of MB201 (HIV-1)
HIV-1 Env of MB539.2B7 = HIV-1 Env of MB539.2B7 (HIV-1)
HIV-1 Env of Q168.a2 = HIV-1 Env of Q168.a2 (HIV-1)
HIV-1 Env of Q23.17 = HIV-1 Env of Q23.17 (HIV-1)
HIV-1 Env of Q259.d2.17 = HIV-1 Env of Q259.d2.17 (HIV-1)
HIV-1 Env of Q461.e2 = HIV-1 Env of Q461.e2 (HIV-1)
HIV-1 Env of Q769.d22 = HIV-1 Env of Q769.d22 (HIV-1)
HIV-1 Env of Q842.d12 = HIV-1 Env of Q842.d12 (HIV-1)
HIV-1 Env of RW020.2 = HIV-1 Env of RW020.2 (HIV-1)
HIV-1 Env of UG037.8 = HIV-1 Env of UG037.8 (HIV-1)
HIV-1 Env of 6535.3 = HIV-1 Env of 6535.3 (HIV-1)
HIV-1 Env of AC10.29 = HIV-1 Env of AC10.29 (HIV-1)
HIV-1 Env of CAAN.A2 = HIV-1 Env of CAAN.A2 (HIV-1)
HIV-1 Env of PVO.04 = HIV-1 Env of PVO.04 (HIV-1)
HIV-1 Env of QH0692.42 = HIV-1 Env of QH0692.42 (HIV-1)
HIV-1 Env of REJO.67 = HIV-1 Env of REJO.67 (HIV-1)
HIV-1 Env of RHPA.7 = HIV-1 Env of RHPA.7 (HIV-1)
HIV-1 Env of SC422.8 = HIV-1 Env of SC422.8 (HIV-1)
HIV-1 Env of THRO.18 = HIV-1 Env of THRO.18 (HIV-1)
HIV-1 Env of TRJO.58 = HIV-1 Env of TRJO.58 (HIV-1)
HIV-1 Env of TRO.11 = HIV-1 Env of TRO.11 (HIV-1)
HIV-1 Env of WITO.33 = HIV-1 Env of WITO.33 (HIV-1)
HIV-1 Env of 191821.E6.1 = HIV-1 Env of 191821.E6.1 (HIV-1)
HIV-1 Env of 3016.V5.c36 = HIV-1 Env of 3016.V5.c36 (HIV-1)
HIV-1 Env of 6405.v4.c34 = HIV-1 Env of 6405.v4.c34 (HIV-1)
HIV-1 Env of C1080.c3 = HIV-1 Env of C1080.c3 (HIV-1)
HIV-1 Env of CM244.ec1 = HIV-1 Env of CM244.ec1 (HIV-1)

B1: CAP256-VRC26.08 (antibody, V domains shown)
VH: EVQLVESGGGVVQPGRSLTLSCAASQFTFSNYGMHWVRQAPGKGLEWVASVSNDGTKKYHGDSVWGRFTISRDNSKNTLFLQMSSLRAEDTAVYFCVRDQREDECEEWWSDYYDFGRELPCRKFRGLGLAGIFDIWGHGTMVTVSS
VL: QSALTQPPSVSAAPGQKVTISCSGNSSNIGNNFVSWYQQVPGTAPKLLLYETYRRPSGIPDRFSGSKSGTSATLAITGLQTGDEADYYCTVWGVRKGVGAVFGTGTKVTVLG
B1 was tested, and the “neutralization IC50” value (HIV-1 Env of CAP256.PI) was greater than 50 µg/mL, the “neutralization IC50” value (HIV-1 Env of CAP256.SU) was 0.003 µg/mL and the “neutralization IC50” value (HIV-1 Env of 96ZM651.02) was 2.82 µg/mL. The “neutralization IC50” value (HIV-1 Env of CAP210.E8) was 0.006 µg/mL, the “neutralization IC50” value (HIV-1 Env of CAP244.D3) was greater than 50 µg/mL and the “neutralization IC50” value (HIV-1 Env of CAP45.G3) was 4.69 µg/mL. For the same binder, the “neutralization IC50” value (HIV-1 Env of DU156.12) was 0.059 µg/mL, the “neutralization IC50” value (HIV-1 Env of DU172.17) was greater than 50 µg/mL and the “neutralization IC50” value (HIV-1 Env of DU422.01) was 0.008 µg/mL. For the same binder, the “neutralization IC50” value (HIV-1 Env of ZM109.4) was greater than 50 µg/mL, the “neutralization IC50” value (HIV-1 Env of ZM135.10a) was greater than 50 µg/mL and the “neutralization IC50” value (HIV-1 Env of ZM197.7) was 0.008 µg/mL. The “neutralization IC50” value (HIV-1 Env of ZM214.15) was greater than 50 µg/mL, the “neutralization IC50” value (HIV-1 Env of ZM249.1) was 0.076 µg/mL and the “neutralization IC50” value (HIV-1 Env of ZM53.12) was 0.004 µg/mL. For the same binder, the “neutralization IC50” value (HIV-1 Env of 0260.v5.c36) was greater than 50 µg/mL, the “neutralization IC50” value (HIV-1 Env of BG505.w6m) was 0.143 µg/mL and the “neutralization IC50” value (HIV-1 Env of KER2008.12) was greater than 50 µg/mL. For the same binder, the “neutralization IC50” value (HIV-1 Env of KER2018.11) was 0.003 µg/mL, the “neutralization IC50” value (HIV-1 Env of MB201) was greater than 50 µg/mL and the “neutralization IC50” value (HIV-1 Env of MB539.2B7) was 31.7 µg/mL. For the same binder, the “neutralization IC50” value (HIV-1 Env of Q168.a2) was 0.256 µg/mL, the “neutralization IC50” value (HIV-1 Env of Q23.17) was 13.3 µg/mL and the “neutralization IC50” value (HIV-1 Env of Q259.d2.17) was 0.009 µg/mL. For the same binder, the “neutralization IC50” value (HIV-1 Env of Q461.e2) was 0.969 µg/mL, the “neutralization IC50” value (HIV-1 Env of Q769.d22) was greater than 50 µg/mL and the “neutralization IC50” value (HIV-1 Env of Q842.d12) was 40.4 µg/mL. The “neutralization IC50” value (HIV-1 Env of RW020.2) was greater than 50 µg/mL, the “neutralization IC50” value (HIV-1 Env of UG037.8) was greater than 50 µg/mL and the “neutralization IC50” value (HIV-1 Env of 6535.3) was greater than 50 µg/mL. The “neutralization IC50” value (HIV-1 Env of AC10.29) was greater than 50 µg/mL, the “neutralization IC50” value (HIV-1 Env of CAAN.A2) was greater than 50 µg/mL and the “neutralization IC50” value (HIV-1 Env of PVO.04) was 11.8 µg/mL. The “neutralization IC50” value (HIV-1 Env of QH0692.42) was greater than 50 µg/mL, the “neutralization IC50” value (HIV-1 Env of REJO.67) was greater than 50 µg/mL and the “neutralization IC50” value (HIV-1 Env of RHPA.7) was greater than 50 µg/mL. For the same binder, the “neutralization IC50” value (HIV-1 Env of SC422.8) was greater than 50 µg/mL, the “neutralization IC50” value (HIV-1 Env of THRO.18) was greater than 50 µg/mL and the “neutralization IC50” value (HIV-1 Env of TRJO.58) was greater than 50 µg/mL. For the same binder, the “neutralization IC50” value (HIV-1 Env of TRO.11) was greater than 50 µg/mL, the “neutralization IC50” value (HIV-1 Env of WITO.33) was greater than 50 µg/mL and the “neutralization IC50” value (HIV-1 Env of 191821.E6.1) was 0.37 µg/mL. The “neutralization IC50” value (HIV-1 Env of 3016.V5.c36) was 0.013 µg/mL, the “neutralization IC50” value (HIV-1 Env of 6405.v4.c34) was greater than 50 µg/mL and the “neutralization IC50” value (HIV-1 Env of C1080.c3) was 0.012 µg/mL. The “neutralization IC50” value (HIV-1 Env of CM244.ec1) was 1.09 µg/mL.
